IntAct's records for PubMed 28683311

Key:
limd1_human LIMD1 [1] = biological target: limd1_human LIMD1 (UniProt Q9UGP4)
tnr6a_human TNRC6A = tnr6a_human TNRC6A (UniProt Q8NDV7)
limd1_human LIMD1 [2] = biological target: limd1_human LIMD1 (UniProt Q9UGP4); remark: listed apart in the source
limd1_human LIMD1 [3] = biological target: limd1_human LIMD1 (UniProt Q9UGP4); remark: listed apart in the source

Sequence of limd1_human LIMD1 (Q9UGP4 whole entry): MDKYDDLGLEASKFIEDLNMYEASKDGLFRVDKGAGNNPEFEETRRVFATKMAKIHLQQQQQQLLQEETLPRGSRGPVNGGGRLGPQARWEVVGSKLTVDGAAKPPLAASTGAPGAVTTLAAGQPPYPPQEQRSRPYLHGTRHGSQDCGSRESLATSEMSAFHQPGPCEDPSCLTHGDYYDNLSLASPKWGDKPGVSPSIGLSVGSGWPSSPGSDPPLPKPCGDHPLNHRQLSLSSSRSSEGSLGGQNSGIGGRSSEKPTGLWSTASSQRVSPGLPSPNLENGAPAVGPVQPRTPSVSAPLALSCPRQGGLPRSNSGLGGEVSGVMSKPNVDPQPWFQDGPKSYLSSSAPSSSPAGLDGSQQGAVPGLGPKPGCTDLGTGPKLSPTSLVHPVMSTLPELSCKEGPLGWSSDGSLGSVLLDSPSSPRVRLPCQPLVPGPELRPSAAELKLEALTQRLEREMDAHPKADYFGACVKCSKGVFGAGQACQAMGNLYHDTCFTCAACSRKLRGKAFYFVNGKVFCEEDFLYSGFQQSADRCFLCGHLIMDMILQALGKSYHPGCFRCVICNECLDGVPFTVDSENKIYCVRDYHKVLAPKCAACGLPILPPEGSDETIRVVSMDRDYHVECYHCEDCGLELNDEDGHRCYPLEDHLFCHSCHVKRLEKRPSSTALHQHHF
Sequence of tnr6a_human TNRC6A (Q8NDV7 whole entry): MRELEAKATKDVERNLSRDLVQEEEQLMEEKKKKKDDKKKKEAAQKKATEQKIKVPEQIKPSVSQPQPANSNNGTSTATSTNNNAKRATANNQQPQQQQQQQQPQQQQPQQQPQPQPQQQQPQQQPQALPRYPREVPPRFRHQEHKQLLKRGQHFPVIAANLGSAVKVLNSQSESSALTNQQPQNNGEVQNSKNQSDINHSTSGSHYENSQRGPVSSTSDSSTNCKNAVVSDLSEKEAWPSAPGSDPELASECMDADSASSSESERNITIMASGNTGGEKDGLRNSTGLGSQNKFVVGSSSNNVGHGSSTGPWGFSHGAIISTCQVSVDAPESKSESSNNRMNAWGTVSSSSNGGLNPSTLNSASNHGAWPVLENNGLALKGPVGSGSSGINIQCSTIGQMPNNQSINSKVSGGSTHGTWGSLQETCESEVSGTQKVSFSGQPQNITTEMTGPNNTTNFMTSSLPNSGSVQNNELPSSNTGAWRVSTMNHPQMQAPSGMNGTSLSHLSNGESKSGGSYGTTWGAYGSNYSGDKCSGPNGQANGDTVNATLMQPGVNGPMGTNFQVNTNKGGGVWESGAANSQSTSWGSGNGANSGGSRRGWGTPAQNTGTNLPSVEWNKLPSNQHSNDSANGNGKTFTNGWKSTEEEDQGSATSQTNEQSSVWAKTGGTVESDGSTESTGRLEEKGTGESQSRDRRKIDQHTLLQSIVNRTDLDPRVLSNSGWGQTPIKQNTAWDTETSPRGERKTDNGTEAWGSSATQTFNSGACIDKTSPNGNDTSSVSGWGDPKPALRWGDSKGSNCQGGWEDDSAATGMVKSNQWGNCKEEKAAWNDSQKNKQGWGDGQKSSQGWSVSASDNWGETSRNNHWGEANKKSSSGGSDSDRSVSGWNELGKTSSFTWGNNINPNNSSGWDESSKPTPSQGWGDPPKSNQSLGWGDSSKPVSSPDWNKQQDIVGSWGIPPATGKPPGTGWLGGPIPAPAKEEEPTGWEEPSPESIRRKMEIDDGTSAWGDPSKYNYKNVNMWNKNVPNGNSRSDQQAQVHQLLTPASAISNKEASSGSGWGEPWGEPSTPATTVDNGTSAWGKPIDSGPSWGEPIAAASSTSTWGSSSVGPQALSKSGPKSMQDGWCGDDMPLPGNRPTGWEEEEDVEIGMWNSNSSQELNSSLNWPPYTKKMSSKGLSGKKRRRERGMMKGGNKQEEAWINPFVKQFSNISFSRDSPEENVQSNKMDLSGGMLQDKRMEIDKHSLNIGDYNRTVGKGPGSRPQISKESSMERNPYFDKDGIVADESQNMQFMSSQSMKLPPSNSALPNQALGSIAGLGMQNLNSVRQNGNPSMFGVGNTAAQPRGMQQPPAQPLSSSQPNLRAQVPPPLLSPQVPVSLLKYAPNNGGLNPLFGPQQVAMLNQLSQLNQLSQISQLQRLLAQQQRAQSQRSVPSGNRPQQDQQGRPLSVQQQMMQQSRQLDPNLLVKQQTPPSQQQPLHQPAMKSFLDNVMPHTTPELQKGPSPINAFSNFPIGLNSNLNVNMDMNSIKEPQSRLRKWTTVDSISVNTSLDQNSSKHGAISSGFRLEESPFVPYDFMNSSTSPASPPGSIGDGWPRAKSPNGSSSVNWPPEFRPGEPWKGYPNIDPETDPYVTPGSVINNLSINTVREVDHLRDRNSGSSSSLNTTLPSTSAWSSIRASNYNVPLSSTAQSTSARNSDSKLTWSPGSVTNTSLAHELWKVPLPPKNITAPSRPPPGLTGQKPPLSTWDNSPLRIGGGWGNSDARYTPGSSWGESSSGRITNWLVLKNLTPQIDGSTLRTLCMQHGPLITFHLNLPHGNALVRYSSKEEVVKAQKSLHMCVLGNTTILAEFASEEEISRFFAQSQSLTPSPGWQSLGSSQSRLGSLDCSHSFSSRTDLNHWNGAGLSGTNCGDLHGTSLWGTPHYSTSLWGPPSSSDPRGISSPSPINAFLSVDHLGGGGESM

effect of a mutation on the interaction (limd1_human LIMD1 [1])	effect of a mutation on the interaction (tnr6a_human TNRC6A)	effect of a mutation on the interaction (limd1_human LIMD1 [2])	effect of a mutation on the interaction (limd1_human LIMD1 [3])	Substance
decreasing interaction strength	with no effect			Protein argonaute-2 (Homo sapiens), Q9UKV8 S387A
increasing interaction strength		with no effect		Protein argonaute-2 (Homo sapiens), Q9UKV8 S387E
			decreasing interaction strength	Protein argonaute-4 (Homo sapiens) (from UniProt Q9HCK5) S377A
			with no effect	Protein argonaute-4 (Homo sapiens) (from UniProt Q9HCK5) S377E
